Columns and labels:
[1] = tested on: T1, O=C(O)C(=O)CC1(C(=O)O)C=CC(O)C=C1; test: discontinuous CDT assay, phenylpyruvate enolate A320; type: biochemical, Steroidobacter cummioxidans; conditions: PBS pH 7.5, 30 °C, CDT site
T1 construct: fusion enzyme, CM N-terminal to CDT; without signal peptide, C-terminal His-tag; E. coli KA29; monomer
From the text: discontinuous CDT assay, phenylpyruvate enolate A320 on ∗ScCMCDT

[2] = tested on: T2, C=C(O[C@@H]1C=C(C(=O)O)C=C[C@H]1O)C(=O)O; test: discontinuous CM assay, phenylpyruvate enolate A320; type: biochemical, Steroidobacter cummioxidans; conditions: PBS pH 7.5, 30 °C, CM site
T2 construct: fusion enzyme, CM N-terminal to CDT; without signal peptide, C-terminal His-tag; E. coli KA29; monomer
From the text: discontinuous CM assay, phenylpyruvate enolate A320 on ∗ScCMCDT

[3] = tested on: C=C(O[C@@H]1C=C(C(=O)O)C=C[C@H]1O)C(=O)O; test: purified protein; conditions: PBS pH 7.5, 30 °C, CM site, lowest substrate 2.5 μM (Km near or below this is less reliable)
[4] = tested on: O=C(O)C(=O)CC1(C(=O)O)C=CC(O)C=C1; test: purified protein; conditions: PBS pH 7.5, 30 °C, CDT site
[5] = substrate: C=C(O[C@@H]1C=C(C(=O)O)C=C[C@H]1O)C(=O)O; test: discontinuous CM assay, phenylpyruvate enolate A320; type: biochemical, Shewanella baltica; conditions: PBS pH 7.5, 30 °C, CM site, lowest substrate 2.5 μM (Km near or below this is less reliable)
From the text: discontinuous CM assay, phenylpyruvate enolate A320 on ∗SbCMCDT

[6] = substrate: O=C(O)C(=O)CC1(C(=O)O)C=CC(O)C=C1; test: discontinuous CDT assay, phenylpyruvate enolate A320; type: biochemical, Shewanella baltica; conditions: PBS pH 7.5, 30 °C, CDT site, lowest substrate 2.5 μM (Km near or below this is less reliable)
From the text: discontinuous CDT assay, phenylpyruvate enolate A320 on ∗SbCMCDT

[7] = substrate: C=C(O[C@@H]1C=C(C(=O)O)C=C[C@H]1O)C(=O)O; test: discontinuous CM assay, phenylpyruvate enolate A320; type: biochemical, Janthinobacterium sp. HH01; conditions: PBS pH 7.5, 30 °C, CM site, lowest substrate 2.5 μM (Km near or below this is less reliable)
From the text: discontinuous CM assay, phenylpyruvate enolate A320 on ∗JbCDTCM

[8] = substrate: O=C(O)C(=O)CC1(C(=O)O)C=CC(O)C=C1; test: discontinuous CDT assay, phenylpyruvate enolate A320; type: biochemical, Janthinobacterium sp. HH01; conditions: PBS pH 7.5, 30 °C, CDT site
From the text: discontinuous CDT assay, phenylpyruvate enolate A320 on ∗JbCDTCM

[9] = substrate: C=C(O[C@@H]1C=C(C(=O)O)C=C[C@H]1O)C(=O)O; test: discontinuous CM assay, phenylpyruvate enolate A320; type: biochemical, Janthinobacterium sp. HH01; conditions: PBS pH 7.5, 30 °C, lowest substrate 2.5 μM (Km near or below this is less reliable)
From the text: discontinuous CM assay, phenylpyruvate enolate […] on ∗JbCM

[10] = CM-site knock-out, lowest substrate 2.5 μM (Km near or below this is less reliable)

Molecule ∗ScCMCDT (Steroidobacter cummioxidans) has a Km [1] of 16.6 ± 2.5 µM, a kcat [1] of 32.0 ± 8.4 s⁻¹ and a kcat/Km [1] of 1.9e+06 ± 200000 M⁻¹ s⁻¹. The Km [2] was 6.3 ± 3.9 µM and the kcat [2] was 6.8 ± 0.7 s⁻¹.

∗MpCDTCM (Massilia phosphatilytica) gave a Km [3] of 3.2 ± 0.0 µM, a kcat [3] of 26.3 ± 1.4 s⁻¹ and a kcat/Km [3] of 8.3e+06 ± 400000 M⁻¹ s⁻¹. It also gave a Km [4] of 18.1 ± 1.7 µM, a kcat [4] of 41.8 ± 3.5 s⁻¹ and a kcat/Km [4] of 2.3e+06 M⁻¹ s⁻¹.

Molecule ∗DsCDTCM (Duganella sacchari) has a Km [3] of 3.0 ± 0.8 µM, a kcat [3] of 19.5 ± 0.2 s⁻¹ and a kcat/Km [3] of 6.8e+06 ± 1.9e+06 M⁻¹ s⁻¹. For the same molecule, the Km [4] was 14.6 ± 3.1 µM, the kcat [4] was 24.9 ± 2.0 s⁻¹ and the kcat/Km [4] was 1.8e+06 ± 500000 M⁻¹ s⁻¹.

B1: ∗SbCMCDT (Shewanella baltica OS155) (protein)
chain: DTDENAELYANMNTRLSYMQQVALYKWQHQLPIEDLAREKIVLAQSVTAAESLGITSVAITDFFQVQIELAKKIQRQYHQQWREHGLPQTLQTKQNTKLSLDKIRPALTTLGQTIIEQIAEHQDQHDFSVFNLAIDTPLVSIEDKAVLFRSLSLIKPKVYLSTLDKIIAEKILYVGTTGDYEPFSYFEAGQIKGIDIDLANRLADSLGAQAVFLPTSWSNLITDLSSERFDIMMSGISKQLFRQRVGLQSDIYLEDGKTPISLCAKKERYDSLAKIDKPDTRMIVNKGGTNQRFVDANIKQAKITVHSSNVTIFQELIANRADVMITDRVEVQLQTKKHTELCSTMPNNLNYSAKAFLMGRDPIWKEYVDAWLELSIKDGSVSNIFNHYI
notes: fusion enzyme, CM N-terminal to CDT; without signal peptide, C-terminal His-tag; E. coli KA29
B1 showed a Km [5] of 3.2 ± 2.7 µM, a kcat [5] of 6.8 ± 0.1 s⁻¹ and a Km [6] of 3.6 ± 1.1 µM. The kcat [6] was 12.2 ± 2.8 s⁻¹ and the kcat/Km [6] was 3.5e+06 ± 300000 M⁻¹ s⁻¹.

B2: ∗JbCDTCM (Janthinobacterium sp. HH01) (protein)
chain: DHRLDDITARGVLRVGTTGDYKPFSSRAGNDFVGLDIELAADLARTLGVPVQIVPTSWPTLMKDFGDGKFDIALGGVSITPERQKQGLFSVSYLRDGKTPITRCENSARFQTLAQIDQPGVRLVVNPGGTNERFARSQAPNAQLTVYPDNVTIFDQIVTGAADLMITDAIETRLQQRLRPQLCAVHPDTPFDFAEKAILLPRDVAFKAVVDKWLQQRIASGAVQRSVDRWLDFPWGLEPLRLAIDQRLLLAQAVARAKWNVQAPIEDLGREAQVIQAAVKEGAALGLPKVWIETVFRAQIEASKTVQRELFAQWSAQQAGKFDDAPDLAKTIRPELDRLTTQLLRSMASNQTVLNDEARKADVARAMRALEARALSPQAATQALAPFF
notes: fusion enzyme, CDT N-terminal to CM; without signal peptide, C-terminal His-tag; E. coli KA29; monomer
B2 gave a Km [7] of 3.0 ± 0.1 µM, a kcat [7] of 17.1 ± 0.9 s⁻¹ and a kcat/Km [7] of 5.7e+06 ± 100000 M⁻¹ s⁻¹. The Km [8] was 7.3 ± 2.0 µM, the kcat [8] was 13.0 ± 1.3 s⁻¹ and the kcat/Km [8] was 1.8e+06 ± 300000 M⁻¹ s⁻¹.

B3: ∗JbCDTCM (Janthinobacterium sp. HH01; E200Q) (protein)
chain: DHRLDDITARGVLRVGTTGDYKPFSSRAGNDFVGLDIELAADLARTLGVPVQIVPTSWPTLMKDFGDGKFDIALGGVSITPERQKQGLFSVSYLRDGKTPITRCENSARFQTLAQIDQPGVRLVVNPGGTNERFARSQAPNAQLTVYPDNVTIFDQIVTGAADLMITDAIQTRLQQRLRPQLCAVHPDTPFDFAEKAILLPRDVAFKAVVDKWLQQRIASGAVQRSVDRWLDFPWGLEPLRLAIDQRLLLAQAVARAKWNVQAPIEDLGREAQVIQAAVKEGAALGLPKVWIETVFRAQIEASKTVQRELFAQWSAQQAGKFDDAPDLAKTIRPELDRLTTQLLRSMASNQTVLNDEARKADVARAMRALEARALSPQAATQALAPFF
notes: as for B2
For B3, the Km ([7]; CDT-site knock-out) was 2.4 ± 1.3 µM, the kcat ([7]; CDT-site knock-out) was 15.6 ± 0.4 s⁻¹ and the kcat/Km ([7]; CDT-site knock-out) was 7.9e+06 ± 4.5e+06 M⁻¹ s⁻¹.

B4: ∗JbCDTCM (Janthinobacterium sp. HH01; K287A) (protein)
chain: DHRLDDITARGVLRVGTTGDYKPFSSRAGNDFVGLDIELAADLARTLGVPVQIVPTSWPTLMKDFGDGKFDIALGGVSITPERQKQGLFSVSYLRDGKTPITRCENSARFQTLAQIDQPGVRLVVNPGGTNERFARSQAPNAQLTVYPDNVTIFDQIVTGAADLMITDAIETRLQQRLRPQLCAVHPDTPFDFAEKAILLPRDVAFKAVVDKWLQQRIASGAVQRSVDRWLDFPWGLEPLRLAIDQRLLLAQAVARAAWNVQAPIEDLGREAQVIQAAVKEGAALGLPKVWIETVFRAQIEASKTVQRELFAQWSAQQAGKFDDAPDLAKTIRPELDRLTTQLLRSMASNQTVLNDEARKADVARAMRALEARALSPQAATQALAPFF
notes: as for B2
B4 gave a Km [8, 10] of 4.2 ± 0.4 µM, a kcat [8, 10] of 13.9 ± 0.3 s⁻¹ and a kcat/Km [8, 10] of 3.3e+06 ± 200000 M⁻¹ s⁻¹.

B5: ∗JbCM (Janthinobacterium sp. HH01) (protein)
chain: GLEPLRLAIDQRLLLAQAVARAKWNVQAPIEDLGREAQVIQAAVKEGAALGLPKVWIETVFRAQIEASKTVQRELFAQWSAQQAGKFDDAPDLAKTIRPELDRLTTQLLRSMASNQTVLNDEARKADVARAMRALEARALSPQAATQALAPFF
notes: split-off CM domain of JbCDTCM, starts at Gly238; C-terminal His-tag; E. coli KA29
With B5 the Km [9] was 2.2 ± 0.3 µM, the kcat [9] was 16.4 ± 1.5 s⁻¹ and the kcat/Km [9] was 7.6e+06 ± 1.7e+06 M⁻¹ s⁻¹.

From article PMC10520331, “Novel exported fusion enzymes with chorismate mutase and cyclohexadienyl dehydratase activity: Shikimate pathway enzymes teamed up in no man's land” (The Journal of Biological Chemistry, 2023)
